System: K4 kissing-loop RNA reporter
Assay: apparent KD of K4 kissing-loop reporter; higher = weaker reporter binding
Conditions: Eterna round: R107
Protocol: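 RNA-MaP round R107: designed RNA switches with theophylline, tryptophan, arginine or FMN aptamers are transcribed on-chip within common flanks. They are titrated with a labelled K4 kissing-loop RNA reporter in RNA-MaP buffer (100 mM Tris pH 7.5, 80 mM KCl, 4 mM MgCl2), without ligand or with the indicated ligand. Median apparent KD per design.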

[1] = input ligand: theophylline 20 uM
[2] = input ligand: tryptophan 2.4 mM
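Note: bound reporter read as fluorescence of individual clusters on recovered sequencing chips by microscopy, with normalized cluster intensities fitted with a binding model.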

For “AAAACUAUCAGAAGGAGCGUGGAAUAUUCAUCUAUAUUUAAUACGAGUGAUGUUCGUAAUUCACAGGUAGGUCGCUGAUCAAUAA [JR_ExcArginiB_Sub007]”, the “apparent KD of K4 kissing-loop reporter” value (input ligand: FMN 200 uM) was 214 nM, the “apparent KD of K4 kissing-loop reporter” value (input ligand: arginine 13.2 mM) was 251 nM and the “apparent KD of K4 kissing-loop reporter” value (input ligand: none) was 233 nM. For the same sequence, the “apparent KD of K4 kissing-loop reporter” value [1] was 273 nM and the “apparent KD of K4 kissing-loop reporter” value [2] was 171 nM.

For “AAAAGAAAGUCGGCCGCCACUCAACGCAGUGAUGUUGCAAGACAGAAGAGCAGUGAUGUUGCCCAGAGGACCGGGACACAAGGCC [Same State Typtophan B GF 3]”, the “apparent KD of K4 kissing-loop reporter” value (input ligand: FMN 200 uM) was 352 nM, the “apparent KD of K4 kissing-loop reporter” value (input ligand: arginine 13.2 mM) was 384 nM and the “apparent KD of K4 kissing-loop reporter” value (input ligand: none) was 444 nM. For the same sequence, the “apparent KD of K4 kissing-loop reporter” value [1] was 401 nM and the “apparent KD of K4 kissing-loop reporter” value [2] was 309 nM.

In the case of “AAAAGCCAGCAAGGAUAUACGCGCGAAGCAUCCAUGGUGCCAGUUCCAGUGAUGUUGGACCACAUCGUAGAAGGUGCGCGGCUCA [theeternabot_sameState_KL_FMN_B_33]”, the “apparent KD of K4 kissing-loop reporter” value (input ligand: FMN 200 uM) is reported as 440 nM, the “apparent KD of K4 kissing-loop reporter” value (input ligand: arginine 13.2 mM) is reported as 223 nM and the “apparent KD of K4 kissing-loop reporter” value (input ligand: none) is reported as 266 nM. The “apparent KD of K4 kissing-loop reporter” value [1] was 224 nM and the “apparent KD of K4 kissing-loop reporter” value [2] was 274 nM.

“AAAAUAAAUAGCAGUCAUGGAGUGAUGUUCCGAGGACCGGUACGGCCGCCACUCGACCAUCAUAAGAUGGAAUGGCGAGACUGCA [#SwitchBubble 22 #K4Early]” was tested, and the “apparent KD of K4 kissing-loop reporter” value (input ligand: FMN 200 uM) was 252 nM, the “apparent KD of K4 kissing-loop reporter” value (input ligand: arginine 13.2 mM) was 288 nM and the “apparent KD of K4 kissing-loop reporter” value (input ligand: none) was 249 nM. For the same sequence, the “apparent KD of K4 kissing-loop reporter” value [1] was 362 nM and the “apparent KD of K4 kissing-loop reporter” value [2] was 520 nM.

In the case of “AAAAUAAAUCAGUGAUGUUGGUAUCCGGAUACCAGCGAUAAUCAUCGCCCUUGGCAGCCGCGGACGUACAAAAUAAGUACGUCCU [MatMod 15 - Jieux - Same State - Theophylline A]”, the “apparent KD of K4 kissing-loop reporter” value (input ligand: FMN 200 uM) is reported as 282 nM, the “apparent KD of K4 kissing-loop reporter” value (input ligand: arginine 13.2 mM) is reported as 89.2 nM and the “apparent KD of K4 kissing-loop reporter” value (input ligand: none) is reported as 218 nM. For the same sequence, the “apparent KD of K4 kissing-loop reporter” value [1] was 240 nM and the “apparent KD of K4 kissing-loop reporter” value [2] was 131 nM.

With “AAAAUAACCCAGUGAUGUUGGUAUGCAGAUACCAGCGACGAAAGUCGCCCUUGGCAGCUGUGGACGUACAAAAUAAGUACGUCCU” the “apparent KD of K4 kissing-loop reporter” value (input ligand: FMN 200 uM) was 1230 nM, the “apparent KD of K4 kissing-loop reporter” value (input ligand: arginine 13.2 mM) was 834 nM and the “apparent KD of K4 kissing-loop reporter” value (input ligand: none) was 1420 nM. The “apparent KD of K4 kissing-loop reporter” value [1] was 1220 nM and the “apparent KD of K4 kissing-loop reporter” value [2] was 1520 nM.

With “AAAAUAAUCCAGUGAUGUUGGUAUCCAGAUACCAGCCAGGAAACUGGCCCUUGGCAGCUGGCGACGUACAAAAUAAGUACGUCGU [#OpenEnded 11 #StaticStem #K4Early]” the “apparent KD of K4 kissing-loop reporter” value (input ligand: FMN 200 uM) was 405 nM, the “apparent KD of K4 kissing-loop reporter” value (input ligand: arginine 13.2 mM) was 184 nM and the “apparent KD of K4 kissing-loop reporter” value (input ligand: none) was 470 nM. The “apparent KD of K4 kissing-loop reporter” value [1] was 664 nM and the “apparent KD of K4 kissing-loop reporter” value [2] was 374 nM.

In the case of “AAAAUAAUCCAGUGAUGUUGGUGUCCAGAUACCAGCGACGAAAGUCGCCCUUGGCAGCUGUGGACGUACAAAAUAAGUACGUCCU”, the “apparent KD of K4 kissing-loop reporter” value (input ligand: FMN 200 uM) is reported as 476 nM, the “apparent KD of K4 kissing-loop reporter” value (input ligand: arginine 13.2 mM) is reported as 331 nM and the “apparent KD of K4 kissing-loop reporter” value (input ligand: none) is reported as 559 nM. The “apparent KD of K4 kissing-loop reporter” value [1] was 251 nM and the “apparent KD of K4 kissing-loop reporter” value [2] was 431 nM.

“AAAAUAGAUCAGUGAUGUUGGUGUCUGGAUACCAGCGAUAAUAGUCGCCCUUGGCAGCCAUGGACGUACAAAAUAAGUACGUCCU [MatMod 20 - Jieux - Same State - Theophylline A]” was tested, and the “apparent KD of K4 kissing-loop reporter” value (input ligand: FMN 200 uM) was 487 nM, the “apparent KD of K4 kissing-loop reporter” value (input ligand: arginine 13.2 mM) was 239 nM and the “apparent KD of K4 kissing-loop reporter” value (input ligand: none) was 369 nM. For the same sequence, the “apparent KD of K4 kissing-loop reporter” value [1] was 285 nM and the “apparent KD of K4 kissing-loop reporter” value [2] was 347 nM.

In the case of “AAACAUCACUGGGAGUGAUGUUCUCAGUGACGAGGACCGGUACGGCCGCCACUCGCGAGAGAUAUAAAUAAGUAAUGACAUCAUU [Excl Tryptophan A V1]”, the “apparent KD of K4 kissing-loop reporter” value (input ligand: FMN 200 uM) is reported as 359 nM, the “apparent KD of K4 kissing-loop reporter” value (input ligand: arginine 13.2 mM) is reported as 334 nM and the “apparent KD of K4 kissing-loop reporter” value (input ligand: none) is reported as 360 nM. For the same sequence, the “apparent KD of K4 kissing-loop reporter” value [1] was 357 nM and the “apparent KD of K4 kissing-loop reporter” value [2] was 423 nM.

“AAAGUUGCAAGUGAUACCAGACGAGUGAAGGGAAGUAAUUAAUUAGGAGUGAUGUUCCGCGUCCCUUGGCAGCACUUUGUAAUUU [Exclusion Theophylline B GF 25]” was tested, and the “apparent KD of K4 kissing-loop reporter” value (input ligand: FMN 200 uM) was 155 nM, the “apparent KD of K4 kissing-loop reporter” value (input ligand: arginine 13.2 mM) was 165 nM and the “apparent KD of K4 kissing-loop reporter” value (input ligand: none) was 152 nM. The “apparent KD of K4 kissing-loop reporter” value [1] was 184 nM and the “apparent KD of K4 kissing-loop reporter” value [2] was 115 nM.

For “AAAUAAAUCGGAGGAUAUCCUUCCCACGUCGAAGUACCGUGCUUGAUGGAGUGAUGUUCGAUCAGAGGAGAAGGCCGAUAAAUAA [Same State FMN B GF20]”, the “apparent KD of K4 kissing-loop reporter” value (input ligand: FMN 200 uM) was 1040 nM, the “apparent KD of K4 kissing-loop reporter” value (input ligand: arginine 13.2 mM) was 732 nM and the “apparent KD of K4 kissing-loop reporter” value (input ligand: none) was 1040 nM. For the same sequence, the “apparent KD of K4 kissing-loop reporter” value [1] was 924 nM and the “apparent KD of K4 kissing-loop reporter” value [2] was 777 nM.

With “AAAUAAUAAAUGCAGCCAGUGAUGUUGGAAGGAGCGUGCGAAAGCACAGGUAGGUCGCCAACCAAAGCUGGAAACAGCAACUGCA [#SwitchBubble 3 #K4Early]” the “apparent KD of K4 kissing-loop reporter” value (input ligand: FMN 200 uM) was 226 nM, the “apparent KD of K4 kissing-loop reporter” value (input ligand: arginine 13.2 mM) was 129 nM and the “apparent KD of K4 kissing-loop reporter” value (input ligand: none) was 84.5 nM. The “apparent KD of K4 kissing-loop reporter” value [1] was 129 nM and the “apparent KD of K4 kissing-loop reporter” value [2] was 99.1 nM.

Reference: the supplement of paper PMC9170038
